# Like-named read-outs stand apart in the source and are kept apart here.
# Legend:
# [1] = target: T1, MDC 69 (Homo sapiens, UniProt O00626); assay: Micro-array analysis of chemokine binding peptides: MDC 69
# T1 construct: MDC(69aa), (CCL22 cat.no.300-36A); purchased 300-36A
# T1 sequence (O00626 25-93): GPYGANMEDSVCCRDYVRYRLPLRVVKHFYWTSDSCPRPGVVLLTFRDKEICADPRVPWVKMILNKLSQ
# Experimental: (§1) (1) Printing: Chemokine (CK) solution (in water) was serially diluted with Print Reagent (GenTel BioSurfaces USA) to final concentrations of 50 μg and 25 μg/ml. BSA/BSA-Biotin control solutions (in water) were diluted with Print Reagent to 100 μg/ml. Amplified stock of M13 phage control (M13KEgIII Cloning Vector, New England Biolabs, Cat.No.E8101S) was stored in Tris Buffered Saline (TBS; pH7.5, 4° C.) and diluted with Print Reagent to the working titre (10^8 pfu/μl). An automated spotting robot (16 pin print tool, 0.4 mm head; BioRobotics, UK) was used to print the CK/BSA control/M13 control, 5 repeats per sample (CK 25 μg/ml and 50 μg/ml; BSA 100 μg/ml; M13 20 μl), on PATH Protein Microarray Slides (GenTel, Prod.No. 2-1005/-1025) at […], and 50-70% relative humidity. Printed micro-array slides were stored at Room Temperature (RT) or 4° C. for at least 24 h before use.
# (2) Blocking: Block Buffer (500 μl/partition; PATHblock, GenTel, Prod.No. 2-1014) was applied to the slide for 1 hour at room temp (RT). After removal of Block Buffer, the slide was air dried for 25 minutes;
# (3) Phage Presented Peptide Binding: Amplified recombinant phage stock was stored in TBS and diluted with Wash Buffer to working titer (10^7 pfu/μl). Recombinant phage suspension (300 μl) was applied per partition and incubated at RT for 1 hour with gentle agitation.
# (4) First Washing: The slides were washed twice with Wash Buffer 300 μl/partition).
# (5) Primary Antibody (Ab) Labeling: The slides were incubated with the Primary Ab (1 mg/ml diluted ×2500 (Wash Reagent), 300 μl; Mouse Anti-M13 monoclonal Ab; Amersham Biosciences, UK; Product Code 27-9420-01) for 45 minutes at RT. […]
# (§2) (11) Analysis: Quantitative analysis of micro-array was performed by the SpotReader program of Niles Scientific (USA) and presented as Relative Fluorescence (RF) as a function of CK concentration. Micro-array readout (Cy3 fluorescence) was quantified to determine the relative binding affinities of a CBP for the CKs and by inference, the specificity of the CBP for binding to a CK.
# [2] = target: T2, MCP-1 (Homo sapiens, UniProt P13500); assay: Micro-array analysis of chemokine binding peptides: MCP-1; conditions: for binding to MCP-1 with relatively high affinity (Relative Fluorescence Units): limit = start of the upper 75% of that peptide's response range
# T2 construct: purchased 300-04
# Method in brief: (§3)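 Chemokines printed at 25 and 50 μg/ml on protein microarray slides, blocked, then probed 1 h at RT with peptide-displaying recombinant phage (10^7 pfu/μl). Bound phage detected with mouse anti-M13 then Cy3 anti-mouse IgG. Cy3 fluorescence scanned, reported as relative fluorescence versus chemokine concentration.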
# [3] = target: T3, Lymphotactin (Homo sapiens, UniProt P47992); assay: Micro-array analysis of chemokine binding peptides: Lymphotactin
# T3 construct: purchased 300-20
# T3 sequence (P47992 22-114): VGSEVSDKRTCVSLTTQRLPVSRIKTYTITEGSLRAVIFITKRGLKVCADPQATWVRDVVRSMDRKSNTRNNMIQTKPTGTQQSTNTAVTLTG
# Method in brief: as §3
# [4] = target: T4, Eotaxin (Homo sapiens, UniProt P51671); assay: Micro-array analysis of chemokine binding peptides: Eotaxin
# T4 construct: purchased 300-21
# Method in brief: as §3
# [5] = target: T5, MIP3-α (Homo sapiens, UniProt P78556); assay: Micro-array analysis of chemokine binding peptides: MIP3-α
# T5 construct: purchased 300-29A
# Experimental: as §1, with “use. […]” for “use.”
# as §2
# [6] = target: T6, IP-10 (Homo sapiens, UniProt P02778); assay: Micro-array analysis of chemokine binding peptides: IP-10
# T6 construct: purchased 300-12
# T6 sequence (P02778 22-98): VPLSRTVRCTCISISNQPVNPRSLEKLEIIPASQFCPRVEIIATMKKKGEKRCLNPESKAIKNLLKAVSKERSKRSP
# Method in brief: as §3
# T2 sequence (P13500 24-99): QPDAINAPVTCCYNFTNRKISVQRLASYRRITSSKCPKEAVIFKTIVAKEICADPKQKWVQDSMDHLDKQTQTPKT
# T4 sequence (P51671 24-97): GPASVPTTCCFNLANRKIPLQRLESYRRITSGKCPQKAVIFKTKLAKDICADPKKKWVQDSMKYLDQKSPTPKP
# T5 sequence (P78556 27-96): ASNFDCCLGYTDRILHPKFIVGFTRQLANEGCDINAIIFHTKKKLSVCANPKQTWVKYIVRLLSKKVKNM
Sequence,"binding to MDC 69, stated in words [1]",binding to MCP-1 with relatively high affinity (Relative Fluorescence Units) [2],"binding to Lymphotactin, stated in words [3]",binding to Eotaxin with relatively high affinity (Relative Fluorescence Units) ([4]; limit = start of the upper 75% of that peptide's response range),"binding to MIP3-α, stated in words [5]","binding to IP-10, stated in words [6]","binding to IP-10, stated in words ([6]; listed as P8.8)","binding to MCP-1, stated in words [2]","binding to Eotaxin, stated in words [4]"
DYDYGAPC [Ph-p30],bound,"> 15,000 RFU",bound,"> 15,000 RFU",–,–,–,–,–
WVFGAAMCK [Ph-p8.8],bound,"> 15,000 RFU",bound,–,bound,bound,bound specifically and differentially,bound specifically and differentially,bound
